In the nanobody polyreactivity screen of Harvey et al. (2022):

Assay: yeast display, Sf9 membrane polyspecificity reagent, FACS + sequencing; frameworks hold sequencing errors
Method in brief: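 Nanobodies came from a synthetic yeast display library in Saccharomyces cerevisiae BJ5465, induced with galactose for 36–48 hours and stained for 1 hour at 4 °C with 10% biotinylated, detergent-solubilized Sf9 membrane reagent. Cells were enriched on streptavidin microbeads and then FACS-sorted, with low and high (top ~1%) gates set on anti-HA fluorescence for expression and streptavidin fluorescence for reagent binding. Each polyreactivity label reflects the gate a clone came from. Genes were amplified by colony PCR, sequenced by MiSeq 2 × 250 and filtered by CDR length.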

| Sequence | polyreactivity (PSR sort gate) |
| --- | --- |
| QVQLVESGGGLVQAGGSLRLSCAASGFTFYVYAMGWYRQAPGKEREFVAAISSSGGSTYYADSVKGRFTISRDNAKNTVYLQMNSLKPEDTAVYYSAALAYSTTRGRLDYWGQGTQVTVSS | high polyreactivity |
| QVQLVESGGGLVQAGGSLRLSCAASGRTFQNNAMGWYRQAPGKERELVAAISRSGASTYYADSVKGRFTISRDNAKNTVYLQMNSLKPEDTAVYYCAARYQRTAYDYWGQGTQVTVSS | low polyreactivity |
| QVQLVESGGGLVQAGGSLRLSCAASGFTYKYYAMGWYRQAPGKERELVAAISGSGGRTYYADSVKGRFTISRDNAKNTVYLQMNSLKPEDTAVYYCAAVYLVTRGARYDYWGQGTQVTVSS | high polyreactivity |
| QVQLQESGGGLVQAGGSLRLSCAASGSISNSAAKVWYRQAPGKERELVVSIGHGASSNYADSVKGRFTISRDNAKNTVYLQMNSLKPEDTAVYYCAAYPGFLDGFFYWGQSTQVTVSS | high polyreactivity |
| QVQLVESGGGLVQAGGILRLSSAASGSTFFNYAMGWYRQAPGKERELVAAISSSGGRTYYADSVKGRFTISRDNAKNTVYLQMNSLKPEDTSVYYCAASGRKHGMNYWGQGTQVTVSS | high polyreactivity |
| QVQLVESGGGLVQAGGSLRLSCAASGRIFKYYAMGWYRQAPGKERELVAAITRGGSTNYADSVKGRFTISRDNASNTVYLQMTSLKPEDTAVYYCAVVTVRNHRMDYWGQGTQVTVSS | low polyreactivity |
| QVQLVESGGGLVQAGGSLRLSCAASGFTFRQNSIGWSRQAPGKERELVAAISRSGSRTYYADSVKGRFTISRDNAKNTVYLQMIRLKPEDTAVYYCKAVFSSFTVEYYWGQGTQVTVSS | high polyreactivity |
| QVQLVESGGGLVQAGGSLSLSCAASGSTFPKYAMGWYRQAPGKERELVAAISGSGGSTYYADSVKGRFTISRDNAKNTVYLQMNSLKPEDTAVYYSAVAWNVRGVGARQRDIYGYWGQGTQVTVST | high polyreactivity |
| QVQLVESGGGLVQAGGSLRLSFAASGIIFRYSAMGWYRQEPGKERELVAAISRSGARTYYADSVKGRFTISRDNAKNTVYLQMNSLKPEDTAVYYCATDPTSGRFYYWGQGTQVTVSS | high polyreactivity |
| QVQLVESGGGLVQAGVSLRLSCAATGFPLQVYDMGWYRQAPGKEMELVADISGSGDSTNYADSVKGRFTISRDNAKNSVYLQMNSLKPEDTAVYYCAAEVRGGYYGYDYWGQGTQVTVSS | low polyreactivity |
| QVQLVESGGGLVQAGGSLRLSCAASGFIFRRYVMGWYRQAPGKERELVAAISNGGGRTYYADSVKGRFTISRDNAKNTVYLQMNSLKPEDTAVYYCAAYPRGPLAPDYDYWGQGTQVTVSS | high polyreactivity |
| QVQLVESGGGLVQAGGSLRLSCAASGRIFYRYAMGWYRQAPGKERELVAAITGSGGSTYYADSVKGRFTISRDNAKNTVYLQMNSLKPEDTAVYYCNAVYARYGSQGYEYWGHGTQVTVSS | high polyreactivity |
| QVQLVESGGGLVQAGGSLRLSCAASGGTFEFYTMGWYRQAPGKERELVAVINASGDSTYYADSVKGRFTISRDNAKNTVYLQMNSLKPEDTAVYYCAADHRGEYDYWGQGTQVTVSS | low polyreactivity |
| QVQLVESGGGLVQAGGSLRLSCAASGRTFYPYAMGWYRKAPVKERDLVAAISWSGGSTRYADSVKGRFTISRDNAKNTVDLQMNSLKPEDTAVYYCNTQYSWYYPADYDYWGQGTQVTVSS | low polyreactivity |
| QVQLVESGGGLVQAGGSLRLSCAASGGTFNSNAMGWYRQAPGKEREFVAAISSSGGSTYYADSVKGRFTISRDNAKNTVYLQMNSLKPEDTAVYYCAKRYPYPNGRFRFGYWGQGTQVTVSS | high polyreactivity |
| QVQLVESGGGLVQAGGSLRLSCAASGFIFAIYAMGWYRQAPGKERELVAAITSSSSTYADSVKGRFTISRDNAKNTVYLQMNSLKPEDTAVYYCAADTYSYRYSNDYWGQGTQVTVSS | low polyreactivity |
| QVQLVESGGVLVQAGGSLRLSCAASGRIFAYYTMGWYRQAPGKEREMVAAISLSGSSTYYADSVKGRFTISRDNAKNNVYLHMNSLKPEDTAVYYCNADSYAYYSWYDYWGQGTQVTVSS | low polyreactivity |
| QVQLVDSGGGLVQAGGSLRLSCAASGSIFYVYAMGWYRQAPGKERELVAAISWTGGSTDYADSVKGRFTISRDNAKNTVYLHMNSLKPEDTAVYYCATELGYGDWYNYWGQGTQVTVSS | low polyreactivity |
| QVQLVESGGGLVQAGGSLRLSCAASGSIFLDYAMGWYRQAPGKERELVAANTSDGSTYYADSVKGRFTISRDKAKNTVYLQMNSLKPEDTAVYYCAVQDTSYDVQYSYGYWGQGTHVTVSS | low polyreactivity |
| QVQLVESGGGLVQAGGSLRLSCAASGFIFRYYAMGWYRQEPGKERELVAAIDYSGGSTNYADSVKGRFTISRDNAKNTVYLQMNSLKPEDTAVYYCNAEYTWHRGYDYWGQGTQVTVSS | low polyreactivity |
| QVQLVESGGGLVQAGGSLRLSCAASGSIFDLIAMGWYRQAPGKERELVAAISSGGGTYYADSVKGRFTISRDNAKNTVYLQMNSLKPEDTAVYYCNRVTRWTYNYWGQGTQVTVSS | high polyreactivity |
| QVQLVESGGGLVQAGGSLRLSCAASGSIFRGNAMGWYRQAPGKERELVAAINKSGGSTYYADSVKGRFTISRDNAKNTVYLQMNSLKPEDTAVYYCAAVYKRLQPYGYWGQGTQVTVSS | high polyreactivity |

| Sequence | polyreactivity (PSR sort gate) |
| --- | --- |
| QVQLVESGGGLVQAGGSLRLSSAASGLNFYWYAMGWSRQAPGKERELVAAISTAGSTNYADSVKGRFTISRDNAKNTVYLQMISLKPEDTAVYYCNARIAYRYSNYGYWGQGTQVTVSS | low polyreactivity |
| QVQLVESGGGLVQAGGSLRLSCAASGNIFYKYDMGWYRQAPGKERELVATISSDANTKYADSLKGRFTISRDNAKNTVYLQMNSLKPEDTPVYYCNVKDPVVRGALRDPTEYDSWGQGTQVTVSS | low polyreactivity |
| QVQLEESGGGLVQAGGSLRLSCPASGIIFGSYAMGWSRQAPGKERELVAAITSDGITNYADSVKGRFTISRDNGKNTVYLPMNSLKPEDTAVYYCAAPGPLGGSDYWGQGTQVTVSS | low polyreactivity |
| QVQLVESGGGLVQAGGSLRLSCAASGYIFHYNTMGWYRQAPGKERELVAAITWSGGNTYYADSVKGRFTISRDNAKNTVYLQMNSLKPEDTAVYYFAKLNYSPEATRSNYWGQGTQVTVSS | low polyreactivity |
| QVQLVESGGGVVQAGGSLRLSCAASGRTFPYNPMGWYRQAPGKERELVAAISGRGGSTYYADSVKGRFTISRDNAKNTVYLQMNSLKPEVSAVYYCDARLPWSYYRTQGYNYWGQGTQVTVSS | high polyreactivity |
| QVQLVESGGGLVQAGGSLRLSCAASGSIFSNAMGWYRQAPGKERELVAAITGRGGRTYYADSVKGRFTISRDNAKNTVFLQMNSLKPEDTAVDYCARDSPWSSRYRYRAFDYWGQGTQVTVSS | high polyreactivity |
| QVQLVESGGGVVQAGGSLRLSCAASGSIFRQNTMGWYRQAPGKERELVAAISSGGSTYYADSVKGRFTISRDNAKNTVYLQMNSPKPEDTAVYYCAAYHSFVWGDDYWGQGTQVTVSS | low polyreactivity |
| QVQLVESGGGLVQEGGSLRLSCAASGITFTSYTMGWYRQAPGKERELVAAISSGGSTYYADSVKGRFTISRDNAKNTVYLQMNSLKPEDTAVYYCAAISYVFRMYYWGQGTQVTVSS | high polyreactivity |
| QVQLVESAGGLVQAGGSLRLSCAASGNIFSYYAMGWYRQAPGKERELVAAISRRGTNTYYADSVKGRFTISRDNAKNTVYLQMKSLKPEDTAVYYCARYGPYQSSYHYDYWGQGTQVTVSS | high polyreactivity |
| QVQIVESGGGLVQAGGSLRLSCAASGRIFDDYAMGWYRQAPGKEREFVAAISTSGGSTYYADSVMGRFTISRDNAKNTVYLKMNSLKPEDTAVYYCNKYGYYGWFGSRYWHDYWGQGTQVTVAS | high polyreactivity |
| QDQLVESGGGLVQAGGSLRLSCAASGSIFQSYAMGWYRQAPGKERELVAANDRSGTSTYYADSVKGRFTISRDNAKNTVYLQLNSLKPEDTAVYYCAAVSSRGRFGYTVQIEYDYWGQGTQVTVSS | low polyreactivity |
| QVQLVESGGGLVQAGGSLRLSCAASGRIFVPNAMGWYRQAPGKERELVAAITRSGSTYYADSVKGRFTISRDNAKNTVYLQMNSLKPEDTAVYYCAADYYYPSQMDSWGQGTQVTVSS | low polyreactivity |
| QVQLVESGGGLVQAGGSLRLSCAASGSIFGEYAMGWSRQAPGKERELVATIRQSGDSTYYADSVKGRFTISRDNAKNTVYLQMNSLKPEDTEVYYCADDLWLYDYYSEYDYWGQGTQVTVSS | low polyreactivity |
| QVQLVESGGGLVQAGGSLRLSCAASGSIFVYNAMGWYRQAPGKEREMVARITYIGTSTYYADSVKGRFTISRDNAKNSVYLQMNSLKPEDTGVYYCNARRRHEGSPPYGYWGQGTQVTVSS | high polyreactivity |
| QVQLVESGGGLVQAGGSLRLSCAASGSTFPGYAMGWYRQAPGKERELVAAINWRGDSTYYADSVKGRFTISRDNAKNTVYLQMNSLKPEDTAVYYCAAKYNHVTDEYDYWGQGTQVTVSS | high polyreactivity |
| QVQLVESGGGLVQAGGSLRLSCAASGLTFRYYAMGWYRQAPGKERELVAAITRRGSTYYADSVKGRFTISRDNAKNTVYLQMNSLKPEDTAVYFCATVTGFHSSPLRDLDYWGHGTQVTVSS | high polyreactivity |
| QVQHVESGGGLVQAGGSLRLSCAASGRIIRGNVMGWYRQAPGKERELVATITSSARTYYADSVKGRFTISRDNAKNTVYLQMNSLKPEDTAVYYCANKQPRYRLRMNYWGQGTQVTVSS | high polyreactivity |
| QVQLVESGGGLVQAGGSLRLSCAASGFIFIRYAMGWYIQAPGKERELVASSTGRGGSTYYADSVKVRFTISRDNAKNTVYLQMNSLKPEDTAVYYCAAYYRYPTGWRWGGYYLYDYWGQGTQVTVSS | high polyreactivity |
| QVQLVESGGGLVQAGGSLRLSCAASGIIFYKYAMGWKRQGPGKERELVAAITSGGRRTYYADSVKGRFTISRDNAKNTVYLLMNSLKPEDTEAFYCAARFSYPWLYLFVYWGQVTQVTVSS | high polyreactivity |
| QVQLVESGGGLVQAGGSLRLSCAASGFTFTYYAMGWYRQAPGKERELVAAISASGDSTYYADSVKGRFTISRDNAKNTVYLQMNILKPEDTAVYYCAALYWYSRSSWDYDYWGQGTQVTVSS | high polyreactivity |
| QVQLVESGGGLVQAGGSLRLSCAASGIIVEYYTMGWKRQAPGKERELVASITYDGDTTYYADSVKGRFTISRDNAKITVYLQMNSRKPEDTAVYYCAADYYYVYSSFGHYYWGQGTQVTVSS | low polyreactivity |
